# Results reported in paper PMC11134845.
# Molecular target: HSV-2G gB ectodomain (recombinant glycoprotein B of Herpes simplex virus 2 strain G, aa 22-724) (Herpes simplex virus 2 (strain G))
# Experiment: cryo-EM structure
substance,measurement,value
"HSV-2G gB ectodomain (recombinant glycoprotein B of Herpes simplex virus 2 strain G, aa 22-724) (domain or fragment)",stoichiometry N,3
